What was measured:
[1] = test system: human and mouse lymphoma cell lines; test: Cell proliferation in panel of BTLAhi and BTLAlo lymphoma cell lines; assay type: cell-based
Method: (§1) FIG. 7A-H. The solHVEM (either Leu39-Va1202 or Pro37-Va1202) protein restores tumor suppressive effects of HVEM.
FIG. 17. sTNFRSF14 inhibits the growth of lymphoma cell lines in vitro. Three lymphoma cell lines (Myc-Bc12, LY-10, Granta) were plated at 1×10^5 cells/ml and were treated with sTNFRSF14 (5 ug/ml) or vehicle each day for 72 hours. After 72 hours cells were counted using a hemocytometer. Each bar represents the average of three independent experiments.
(§2) Building on these findings, experiments were performed to test whether solHVEM would have any single agent activity against lymphomas. First, the expression of the BTLA receptor was characterized across a panel of human and mouse lymphoma (mostly DLBCL) cell lines. […] Next, experiments were performed to test if solHVEM had any effect on established BTLA^hi lymphomas in vivo. Briefly, aggressive MYC/BCL2 double positive murine lymphoma cells that express BTLA (BTLA^hi) were transplanted into the flanks of J:Nu nude mice and mice were treated with 20 μg of solHVEM or vehicle (PBS) every three days for a total four times once the engrafted tumors reached a volume of ˜50 mm3. […] Similar results were obtained both in vitro and in vivo with a different soluble HVEM molecule consisting of the extracellular region from amino acids Pro37 to Va1202 (SEQ ID NO. 6).
Lymphoma cell lines DoHH2, Ly-10, Granta, Su-DHL-6 were maintained in RPMI 1640 with 10% fetal bovine serum, 1% L-Glutamine and 1% penicillin/streptomycin. Mouse lymphoma cell line myc-bcl2 was maintained in IMDM-DMEM (50:50) with 10% fetal bovine serum, 1% L-Glutamine, and 1% penicillin/streptomycin. Cell lines were seeded at 5×10^5/mL and were treated with 5 m/m1 of sHVEM. After 24 hours cell number was counted using hemocytometer for a total of 72 hours after treatment.

DOHH2 cells = test: BTK, SYK and ERK activation in anti-IgG-stimulated DOHH2 cells; assay type: cell-based, human
Method: as §1
FIG. 14A-E. Effect of solHVEM (either Leu39-Va1202 or Pro37-Va1202) on murine and human FL B cells. FIG. 14A and FIG. 14B, Quantification of pSYK levels in DOHH2 lymphoma cells that were stimulated with anti-IgG in the presence or absence of Pro37-Va1202 solHVEM (5 μg/ml) (* indicated p<0.01); representative FACS measurement in (FIG. 14B) FIG. 14C, FACS analysis of BTLA expression in a panel of lymphoma lines including murine myc/bc12 lymphomas and human lines (DOHH2, Su-DHL6, Granta, Ly10); FIG. 14D, representative pictures of tumors from mice; FIG. 14E, tumor weight of mouse tumors (n=3, p<0.01).
FIG. 15A-B. sTNFRSF14 opposes B cell receptor signaling in lymphoma B cells by decreasing P-BTK. A B-cell lymphoma cell line (DOHH2) was pre-treated for one hour with the soluble ectodomain of TNFRSF14 (sTNFRSF14) Pro 37-Val 202 (5 ug/ml) or the BTK inhibitor Ibrutinib (10nmM) and then stimulated for 5 mins at 37° C. with anti-IgG molecule. The cells were subsequently fixed and permeabilized and probed for pBTK expression using phospo-flow antibodies and analyzed on BD Fortessa. FIG. 15A, Representative FACS plots. FIG. 15B, Quantification of mean fluorescence intensity of phospho-BTK after treatment with vehicle or drug.
FIG. 16A-B. sTNFRSF14 opposes B-cell receptor signaling in lymphoma B cells by decreasing P-SYK. A B-cell lymphoma cell line (DOHH2) was pre-treated for one hour with the soluble ectodomain of TNFRSF14 (sTNFRSF14) Pro37-Val 202 (5 ug/ml) or the BTK inhibitor Ibrutinib (10nmM) and then stimulated for 5 mins at 37° C. with anti-IgG molecule. The cells were subsequently fixed and permeabilized and probed for pSYK expression using phospo-flow antibodies and analyzed on a BD Fortessa. FIG. 16A, Representative FACS plots. FIG. 16B, Quantification of mean fluorescence intentisty of phospho-SYK after treatment with vehicle or drug.
as §2
For phospho-BTK, phospho-Syk staining, cells were pretreated for 60 min with either 5 μg/mL of sHVEM (R&D Systems) or 10 ng/mL Ibrutinib (ChemieTek PCI-32765) at 37° C. Cells were fixed by adding equal volume of formaldehyde directly to the cells. Cells were incubated for 10 minutes at room temperature, washed 2× in PBS and the residual cells were permeabilized in 1 mL of ice cold methanol (100%) for 30 min on ice. Cells were then washed twice and stained with the phospho-BTK (Bd Biosciences clone N35-88) and phospho-Syk (Bd Biosciences clone 17 A/P-Zap70) and analyzed on BD LSRFortessa. […]

[2] = DOHH2 (BTLAhi, HVEM deleted), 10 μg/ml

Q: For “solHVEM: Leu39-Val202 soluble HVEM ectodomain polypeptide of SEQ ID NO. 8”, which “growth of BTLAhi lymphoma cells” value ([1]; BTLAhi lines (DOHH2, SU-DHL6, murine MYC/BCL2), 5 μg/ml) is on record?
A: Its value is “significant growth inhibition”.

Q: And the “growth of BTLAlo lymphoma cells” value ([1]; BTLAlo lines (Granta, Su-DHL10), 5 μg/ml)?
A: Its value is “not affected”.

Q: What about the ERK activation (DOHH2 cells; [2]) of the same molecule?
A: The ERK activation was “readily blocked”.

Q: What about the SYK activation (DOHH2 cells; [2]) of the same molecule?
A: Its SYK activation is “readily blocked”.

B1: sTNFRSF14: Pro37-Val202 soluble HVEM ectodomain polypeptide of SEQ ID NO. 6 (protein, listed as Homo sapiens)
chain: PALPSCKEDEYPVGSECCPKCSPGYRVKEACGELTGTVCEPCPPGTYIAHLNGLSKCLQCQMCDPAMGLRASRNCSRTENAVCGCSPGHFCIVQDGDHCAACRAYATSSPGQRVQKGGTESQDTLCQNCPPGTFSPNGTLEECQHQTKCSWLVTKAGAGTSSSHWV
Q: Which results are given for B1?
A: cell growth in cell lines that did not express BTLA ([1]; 5 ug, three days): did not inhibit cell growth; cell growth in cell lines with highest BTLA levels ([1]; Myc-Bc12 cell line, 5 ug, three days): largest effect on growth; BTK activation (DOHH2 cells; [2]): readily blocked; activation (phosphorylation) of BTK (DOHH2 cells; DOHH2, one hour pre-incubation, 5 ug/ml, anti-IgG): effectively blocked; levels of phosphorylated SYK (DOHH2 cells; DOHH2, one hour pre-treatment, 5 ug/ml, anti-IgG): inhibited

— US11261232B2, “TNFRSF14 / HVEM proteins and methods of use thereof” (MEMORIAL SLOAN KETTERING CANCER CENTER, priority 2015, dated 2022)
